{
  "source": "paper PMC5701133",
  "binders": {"B1": {"name": "ssRNA 27-nt (ssRNA)", "RNA": "AUACGAUGCUUUACGGUGCUAUUUUGU"}},
  "target": "JMJD6 full-length;BRD4 ET domain (human?;human, UniProt Q6NYC1;O60885 1-403;601-683, |)",
  "assay": "thermal shift (DSF); with BRD4 ET; Tm […] C (+[…] C vs JMJD6/ssRNA); DSF: PBS pH 7.4, 1 uM JMJD6, 1 uM oligonucleotide, ET 1-100 uM, SYPRO Orange, 25-95 C at 1 C/min",
  "data": [
    {"binder": "B1", "values": [
      {"measurement": "binding result", "result": "binds"}
    ]}
  ]
}
